T1: HMO1 (Saccharomyces cerevisiae, UniProt Q03973 1-246)
T1 sequence: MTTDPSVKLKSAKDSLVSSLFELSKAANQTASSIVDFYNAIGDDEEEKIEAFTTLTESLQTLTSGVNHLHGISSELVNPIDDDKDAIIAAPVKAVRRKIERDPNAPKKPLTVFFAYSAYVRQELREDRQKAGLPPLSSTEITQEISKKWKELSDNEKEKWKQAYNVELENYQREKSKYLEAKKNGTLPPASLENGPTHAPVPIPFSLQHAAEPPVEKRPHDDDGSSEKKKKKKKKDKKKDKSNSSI

B1: SO duplex (IFHL site) (dsDNA)
DNA 1: ACTACGCTCTAGGCAGAGTTCACC
DNA 2: GGTGAACTCTGCCTAGAGCGTAGT
B2: RO duplex (randomized sequence) (dsDNA)
DNA 1: CTATCGGCACACTTCACGGCACAC
DNA 2: GTGTGCCGTGAAGTGTGCCGATAG

Target: T1, HMO1
Assay: EMSA; apparent Kd from Hill fit of free DNA; 6 nM DNA; EMSA: 17 mM HEPES pH 7.6, 2 mM Tris-HCl, 0.8 mM Na3EDTA, 0.11 mM 2-mercaptoethanol, 11 mM NaCl, 1.1% glycerol, 12% sucrose; 6 nM DNA, 10-800 nM HMO1, 30 min at
Details: protein: recombinant, tags: N-terminal His6 (pET15b), blunt

Binder	Kd (label: 5'-Cy3 on strand 2 (S6)) [nM]	Kd (label: 5'-Cy3 on strand 1 (S3)) [nM]
B1	62	
B2		128

From article PMC11430298, “Complexes of HMO1 with DNA: Structure and Affinity”
